Reference: publication PMC4705653, “Mcm10 coordinates the timely assembly and activation of the replication fork helicase” (Nucleic Acids Research, 2015)

Molecular target: T1, PKA-Mcm3 (radiolabeled) (budding yeast, UniProt P24279 1-971, 32P label on the PKA tag (protein kinase A with [gamma-32P]-ATP))
T1 construct: Mcm3, budding yeast; not shown: PKA tag, N-terminal, kept
Experiment: pull-down; 30 pmol GST-tagged protein on Glutathione Sepharose, varying concentrations of 32P-labelled PKA-tagged protein in solution; GST binding buffer (40 mM Tris–HCl pH 7.5, 100 mM NaCl, 0.1 mM EDTA, 10% glycerol, 0.1% Triton X-100, 1 mM DTT, 0.1 mg/ml BSA), 100 μl, 30°C, 10 min; SDS-PAGE and phosphorimaging; in some panels with 5 mM ATP or ATPγS, or with a third labelled protein (Mcm10, Sld3) added
Conditions: both partners purified

T1 sequence (P24279 whole entry): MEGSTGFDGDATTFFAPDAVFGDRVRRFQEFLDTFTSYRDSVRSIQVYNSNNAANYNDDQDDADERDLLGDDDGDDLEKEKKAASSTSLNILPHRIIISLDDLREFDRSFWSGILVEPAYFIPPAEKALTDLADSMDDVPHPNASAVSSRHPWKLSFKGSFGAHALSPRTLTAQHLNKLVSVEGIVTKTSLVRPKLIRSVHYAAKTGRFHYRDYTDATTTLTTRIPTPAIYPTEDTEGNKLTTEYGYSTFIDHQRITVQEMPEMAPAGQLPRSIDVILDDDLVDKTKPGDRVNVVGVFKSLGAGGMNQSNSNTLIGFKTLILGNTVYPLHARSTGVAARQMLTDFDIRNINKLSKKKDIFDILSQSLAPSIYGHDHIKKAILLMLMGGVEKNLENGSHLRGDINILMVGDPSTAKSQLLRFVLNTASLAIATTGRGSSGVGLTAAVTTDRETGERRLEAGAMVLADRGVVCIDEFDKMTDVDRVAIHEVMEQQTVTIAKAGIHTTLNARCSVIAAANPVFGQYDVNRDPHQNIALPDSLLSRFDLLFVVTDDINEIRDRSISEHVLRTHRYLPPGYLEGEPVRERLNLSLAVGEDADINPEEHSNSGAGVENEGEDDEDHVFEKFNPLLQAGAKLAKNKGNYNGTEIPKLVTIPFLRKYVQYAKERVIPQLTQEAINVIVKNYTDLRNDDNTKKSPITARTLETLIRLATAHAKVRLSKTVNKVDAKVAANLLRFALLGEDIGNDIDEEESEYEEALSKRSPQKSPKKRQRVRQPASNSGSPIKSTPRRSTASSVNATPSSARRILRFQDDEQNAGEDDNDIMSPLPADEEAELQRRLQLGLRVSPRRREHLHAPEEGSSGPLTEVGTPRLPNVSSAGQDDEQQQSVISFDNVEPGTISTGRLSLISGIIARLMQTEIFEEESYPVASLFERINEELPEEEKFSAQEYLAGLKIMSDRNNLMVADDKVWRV

binding result: binds
B1: GST-Mcm10 (natural protein, budding yeast, UniProt P32354 1-571, looked up)
chain: MNDPREILAVDPYNNITSDEEDEQAIARELEFMERKRQALVERLKRKQEFKKPQDPNFEAIEVPQSPTKNRVKVGSHNATQQGTKFEGSNINEVRLSQLQQQPKPPASTTTYFMEKFQNAKKNEDKQIAKFESMMNARVHTFSTDEKKYVPIITNELESFSNLWVKKRYIPEDDLKRALHEIKILRLGKLFAKIRPPKFQEPEYANWATVGLISHKSDIKFTSSEKPVKFFMFTITDFQHTLDVYIFGKKGVERYYNLRLGDVIAILNPEVLPWRPSGRGNFIKSFNLRISHDFKCILEIGSSRDLGWCPIVNKKTHKKCGSPINISLHKCCDYHREVQFRGTSAKRIELNGGYALGAPTKVDSQPSLYKAKGENGFNIIKGTRKRLSEEEERLKKSSHNFTNSNSAKAFFDEKFQNPDMLANLDNKRRKIIETKKSTALSRELGKIMRRRESSGLEDKSVGERQKMKRTTESALQTGLIQRLGFDPTHGKISQVLKSSVSGSEPKNNLLGKKKTVINDLLHYKKEKVILAPSKNEWFKKRSHREEVWQKHFGSKETKETSDGSASDLEII
notes: Mcm10, budding yeast, full length PCR product in SpeI/XhoI sites of pET-41; source: cloned in pET-41 vector; not shown: GST, N-terminal, kept
